Results published in publication PMC3235549.

Molecular target: Recombinant RNMT (human) (UniProt O43148)
Chain of UniProt O43148 (O43148 whole entry): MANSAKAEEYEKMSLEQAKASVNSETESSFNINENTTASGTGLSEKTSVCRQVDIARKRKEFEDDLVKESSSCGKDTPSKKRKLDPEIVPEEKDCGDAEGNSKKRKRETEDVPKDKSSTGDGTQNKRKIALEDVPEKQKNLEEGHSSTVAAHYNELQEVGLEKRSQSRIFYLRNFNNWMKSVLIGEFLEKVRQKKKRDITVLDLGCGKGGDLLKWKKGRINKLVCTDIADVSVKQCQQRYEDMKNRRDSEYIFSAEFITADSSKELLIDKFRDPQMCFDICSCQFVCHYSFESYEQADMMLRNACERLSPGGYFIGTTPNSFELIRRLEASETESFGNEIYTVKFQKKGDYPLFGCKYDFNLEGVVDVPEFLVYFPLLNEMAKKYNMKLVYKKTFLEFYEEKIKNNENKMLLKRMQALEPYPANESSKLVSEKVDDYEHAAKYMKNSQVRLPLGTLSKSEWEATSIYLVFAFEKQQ

in vitro cap methyltransferase assay, 20 nM RNMT with 20 nM RAM (Figure 3D): > 4 fold
Substance: Recombinant RAM (from UniProt Q9BTL3 1-118) (natural protein)
